# Patent US20170355766A1 (Xencor, published 2017)
# Residue numbers refer to the chain shown, from its start. Names and notes keep the numbering of the source.
# T1: FcγRIIaR (human, UniProt P12318)
# T1 construct: recombinant receptor protein with 6xHis and GST tags; also called R131 FcγRIIa
# T1 sequence (receptor, looked up): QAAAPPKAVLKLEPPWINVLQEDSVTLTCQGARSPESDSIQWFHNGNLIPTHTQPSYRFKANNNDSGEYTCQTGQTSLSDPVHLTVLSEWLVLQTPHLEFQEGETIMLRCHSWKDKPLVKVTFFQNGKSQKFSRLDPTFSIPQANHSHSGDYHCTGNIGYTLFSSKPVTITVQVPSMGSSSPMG
# T2: human FcγRIIb receptor protein (R&D Systems) (human, UniProt P31994 46-217)
# T2 construct: Analyte injected over antibodies captured on a protein A/G chip (Biacore); also called CD32b
# T2 sequence (looked up): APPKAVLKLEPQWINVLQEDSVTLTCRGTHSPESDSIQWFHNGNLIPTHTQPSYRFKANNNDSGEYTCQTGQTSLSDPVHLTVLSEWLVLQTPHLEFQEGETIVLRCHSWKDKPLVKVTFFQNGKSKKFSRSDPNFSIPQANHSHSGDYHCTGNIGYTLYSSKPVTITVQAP
# B1: G237N/S267E (antibody, human IgG1, kappa)
# heavy: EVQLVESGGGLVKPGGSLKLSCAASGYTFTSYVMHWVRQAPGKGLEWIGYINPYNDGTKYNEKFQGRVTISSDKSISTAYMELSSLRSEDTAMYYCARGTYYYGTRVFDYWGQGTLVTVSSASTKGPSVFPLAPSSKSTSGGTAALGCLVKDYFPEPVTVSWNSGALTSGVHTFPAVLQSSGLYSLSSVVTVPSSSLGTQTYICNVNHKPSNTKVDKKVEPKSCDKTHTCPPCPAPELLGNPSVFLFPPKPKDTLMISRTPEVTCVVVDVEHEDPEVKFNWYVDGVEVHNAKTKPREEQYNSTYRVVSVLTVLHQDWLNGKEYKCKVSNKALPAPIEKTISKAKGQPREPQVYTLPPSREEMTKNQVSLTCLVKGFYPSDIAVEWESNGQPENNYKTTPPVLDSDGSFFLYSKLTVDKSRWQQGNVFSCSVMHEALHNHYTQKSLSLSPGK
# light: DIVMTQSPATLSLSPGERATLSCRSSKSLQNVNGNTYLYWFQQKPGQSPQLLIYRMSNLNSGVPDRFSGSGSGTEFTLTISSLEPEDFAVYYCMQHLEYPITFGAGTKLEIKRTVAAPSVFIFPPSDEQLKSGTASVVCLLNNFYPREAKVQWKVDNALQSGNSQESVTEQDSKDSTYSLSSTLTLSKADYEKHKVYACEVTHQGLSSPVTKSFNRGEC
# notes: HuAM4G7 IgG1 Fc variant
# B2: L234W/G236D/S239E/S267E (antibody, human IgG1, kappa)
# heavy: EVQLVESGGGLVKPGGSLKLSCAASGYTFTSYVMHWVRQAPGKGLEWIGYINPYNDGTKYNEKFQGRVTISSDKSISTAYMELSSLRSEDTAMYYCARGTYYYGTRVFDYWGQGTLVTVSSASTKGPSVFPLAPSSKSTSGGTAALGCLVKDYFPEPVTVSWNSGALTSGVHTFPAVLQSSGLYSLSSVVTVPSSSLGTQTYICNVNHKPSNTKVDKKVEPKSCDKTHTCPPCPAPEWLDGPEVFLFPPKPKDTLMISRTPEVTCVVVDVEHEDPEVKFNWYVDGVEVHNAKTKPREEQYNSTYRVVSVLTVLHQDWLNGKEYKCKVSNKALPAPIEKTISKAKGQPREPQVYTLPPSREEMTKNQVSLTCLVKGFYPSDIAVEWESNGQPENNYKTTPPVLDSDGSFFLYSKLTVDKSRWQQGNVFSCSVMHEALHNHYTQKSLSLSPGK
# light: B1 light
# notes: HuAM4G7 IgG1 Fc variant
# B3: L235H (antibody, human IgG1, kappa)
# heavy: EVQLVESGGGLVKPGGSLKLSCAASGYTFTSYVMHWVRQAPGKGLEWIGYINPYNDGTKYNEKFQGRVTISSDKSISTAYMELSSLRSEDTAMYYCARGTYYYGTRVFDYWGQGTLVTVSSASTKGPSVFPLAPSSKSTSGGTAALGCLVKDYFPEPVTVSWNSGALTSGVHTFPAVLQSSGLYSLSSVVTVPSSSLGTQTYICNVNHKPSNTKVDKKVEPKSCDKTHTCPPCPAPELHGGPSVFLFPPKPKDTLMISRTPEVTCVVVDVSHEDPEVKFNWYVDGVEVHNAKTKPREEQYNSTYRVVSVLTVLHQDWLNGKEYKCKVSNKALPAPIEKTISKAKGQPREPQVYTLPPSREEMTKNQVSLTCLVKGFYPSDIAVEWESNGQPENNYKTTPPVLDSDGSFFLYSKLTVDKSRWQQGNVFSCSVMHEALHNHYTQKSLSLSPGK
# light: B1 light
# notes: HuAM4G7 IgG1 Fc variant
# B4: L234V (antibody, human IgG1, kappa)
# heavy: not shown
# light: B1 light
# notes: HuAM4G7 IgG1 Fc variant
# B5: G237Y (antibody, human IgG1, kappa)
# heavy: not shown
# light: B1 light
# notes: HuAM4G7 IgG1 Fc variant
# B6: S267E/H268E/L328F (antibody, human IgG1, kappa)
# heavy: B2 heavy with W238L, D240G, E243S, H272E, L332F
# light: B1 light
# notes: HuAM4G7 IgG1 Fc variant
# B7: P329E (antibody, human IgG1, kappa)
# heavy: not shown
# light: B1 light
# notes: HuAM4G7 IgG1 Fc variant
# B8: L234D/S267E (antibody, human IgG1, kappa)
# heavy: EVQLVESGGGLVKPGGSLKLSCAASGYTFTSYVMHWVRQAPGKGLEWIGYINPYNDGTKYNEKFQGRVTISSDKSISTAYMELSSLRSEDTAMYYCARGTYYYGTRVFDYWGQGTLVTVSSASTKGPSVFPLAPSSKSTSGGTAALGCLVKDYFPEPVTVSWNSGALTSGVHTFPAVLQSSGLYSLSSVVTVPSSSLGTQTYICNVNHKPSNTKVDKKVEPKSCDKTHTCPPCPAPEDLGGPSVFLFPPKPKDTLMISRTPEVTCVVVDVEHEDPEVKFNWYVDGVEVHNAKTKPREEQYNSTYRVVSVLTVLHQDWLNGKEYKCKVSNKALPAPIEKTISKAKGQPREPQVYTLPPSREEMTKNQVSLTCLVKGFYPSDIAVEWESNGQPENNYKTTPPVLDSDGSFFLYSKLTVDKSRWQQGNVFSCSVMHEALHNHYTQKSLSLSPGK
# light: B1 light
# notes: HuAM4G7 IgG1 Fc variant
# B9: S239Q (antibody, human IgG1, kappa)
# heavy: not shown
# light: B1 light
# notes: HuAM4G7 IgG1 Fc variant
# B10: G237V (antibody, human IgG1, kappa)
# heavy: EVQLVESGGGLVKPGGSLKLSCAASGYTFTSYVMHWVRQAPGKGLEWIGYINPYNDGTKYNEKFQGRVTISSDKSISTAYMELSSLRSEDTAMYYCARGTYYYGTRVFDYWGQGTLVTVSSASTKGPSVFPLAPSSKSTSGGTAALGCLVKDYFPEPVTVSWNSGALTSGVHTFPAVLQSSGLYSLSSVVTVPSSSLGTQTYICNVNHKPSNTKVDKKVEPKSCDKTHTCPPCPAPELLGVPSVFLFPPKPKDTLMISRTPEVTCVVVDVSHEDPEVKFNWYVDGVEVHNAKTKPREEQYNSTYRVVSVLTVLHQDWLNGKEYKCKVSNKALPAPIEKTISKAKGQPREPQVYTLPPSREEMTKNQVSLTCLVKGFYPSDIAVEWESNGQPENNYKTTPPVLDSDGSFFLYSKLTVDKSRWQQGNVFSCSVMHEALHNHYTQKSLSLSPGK
# light: B1 light
# notes: HuAM4G7 IgG1 Fc variant
# B11: L234Y (antibody, human IgG1, kappa)
# heavy: not shown
# light: B1 light
# notes: HuAM4G7 IgG1 Fc variant
# B12: V266D (antibody, human IgG1, kappa)
# heavy: not shown
# light: B1 light
# notes: HuAM4G7 IgG1 Fc variant
# B13: L234D/G236N/S267E (antibody, human IgG1, kappa)
# heavy: B2 heavy with W238D, D240N, E243S
# light: B1 light
# notes: HuAM4G7 IgG1 Fc variant
# B14: S267E/L328H (antibody, human IgG1, kappa)
# heavy: not shown
# light: B1 light
# notes: HuAM4G7 IgG1 Fc variant
# B15: L234S (antibody, human IgG1, kappa)
# heavy: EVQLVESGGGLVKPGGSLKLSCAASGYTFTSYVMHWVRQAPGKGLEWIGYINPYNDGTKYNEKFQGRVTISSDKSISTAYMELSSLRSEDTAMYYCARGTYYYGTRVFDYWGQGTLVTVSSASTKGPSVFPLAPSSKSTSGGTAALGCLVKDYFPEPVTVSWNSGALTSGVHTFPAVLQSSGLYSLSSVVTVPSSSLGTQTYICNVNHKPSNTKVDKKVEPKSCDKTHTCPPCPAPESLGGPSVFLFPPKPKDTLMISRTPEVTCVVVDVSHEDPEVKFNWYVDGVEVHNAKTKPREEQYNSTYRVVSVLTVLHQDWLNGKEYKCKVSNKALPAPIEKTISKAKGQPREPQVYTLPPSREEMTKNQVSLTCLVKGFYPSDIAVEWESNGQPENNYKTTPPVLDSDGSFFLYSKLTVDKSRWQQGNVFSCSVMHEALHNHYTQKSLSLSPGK
# light: B1 light
# notes: HuAM4G7 IgG1 Fc variant
# B16: S267E/L328I (antibody, human IgG1, kappa)
# heavy: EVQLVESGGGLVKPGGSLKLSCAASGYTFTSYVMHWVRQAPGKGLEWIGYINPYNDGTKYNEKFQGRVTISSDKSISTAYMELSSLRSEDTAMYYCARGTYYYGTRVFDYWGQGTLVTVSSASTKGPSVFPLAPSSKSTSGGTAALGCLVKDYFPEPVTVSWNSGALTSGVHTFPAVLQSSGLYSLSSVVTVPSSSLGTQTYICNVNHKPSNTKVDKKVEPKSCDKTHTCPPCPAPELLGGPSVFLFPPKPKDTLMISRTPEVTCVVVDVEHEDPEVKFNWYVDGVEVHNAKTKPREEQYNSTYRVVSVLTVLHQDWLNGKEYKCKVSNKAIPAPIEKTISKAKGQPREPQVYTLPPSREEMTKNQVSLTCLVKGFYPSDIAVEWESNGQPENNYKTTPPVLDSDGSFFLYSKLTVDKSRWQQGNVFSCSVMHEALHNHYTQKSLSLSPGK
# light: B1 light
# notes: HuAM4G7 IgG1 Fc variant
# B17: L235R (antibody, human IgG1, kappa)
# heavy: not shown
# light: B1 light
# notes: HuAM4G7 IgG1 Fc variant
# B18: S239D/S267E/L328F (antibody, human IgG1, kappa)
# heavy: B2 heavy with W238L, D240G, E243D, L332F
# light: B1 light
# notes: HuAM4G7 IgG1 Fc variant
# B19: S298D (antibody, human IgG1, kappa)
# heavy: not shown
# light: B1 light
# notes: HuAM4G7 IgG1 Fc variant
# B20: S239N (antibody, human IgG1, kappa)
# heavy: not shown
# light: B1 light
# notes: HuAM4G7 IgG1 Fc variant
# B21: L234W/S239E/S267E (antibody, human IgG1, kappa)
# heavy: B2 heavy with D240G
# light: B1 light
# notes: HuAM4G7 IgG1 Fc variant
# B22: L234I (antibody, human IgG1, kappa)
# heavy: not shown
# light: B1 light
# notes: HuAM4G7 IgG1 Fc variant
# B23: L234Q (antibody, human IgG1, kappa)
# heavy: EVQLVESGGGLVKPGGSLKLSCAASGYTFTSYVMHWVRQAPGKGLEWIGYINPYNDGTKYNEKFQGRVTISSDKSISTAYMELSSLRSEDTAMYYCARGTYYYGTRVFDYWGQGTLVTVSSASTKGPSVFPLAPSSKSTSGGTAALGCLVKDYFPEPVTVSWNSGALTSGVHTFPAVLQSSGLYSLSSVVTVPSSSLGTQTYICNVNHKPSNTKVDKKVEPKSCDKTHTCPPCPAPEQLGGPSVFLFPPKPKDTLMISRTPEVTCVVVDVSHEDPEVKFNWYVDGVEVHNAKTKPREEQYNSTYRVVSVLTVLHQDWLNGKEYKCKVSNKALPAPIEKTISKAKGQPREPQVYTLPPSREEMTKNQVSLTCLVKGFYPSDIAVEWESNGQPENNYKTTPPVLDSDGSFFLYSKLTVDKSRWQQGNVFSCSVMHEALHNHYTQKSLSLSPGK
# light: B1 light
# notes: HuAM4G7 IgG1 Fc variant
# B24: L235E (antibody, human IgG1, kappa)
# heavy: not shown
# light: B1 light
# notes: HuAM4G7 IgG1 Fc variant
# B25: H268N (antibody, human IgG1, kappa)
# heavy: not shown
# light: B1 light
# notes: HuAM4G7 IgG1 Fc variant
# B26: L234G (antibody, human IgG1, kappa)
# heavy: not shown
# light: B1 light
# notes: HuAM4G7 IgG1 Fc variant
# B27: S267E/A327D (antibody, human IgG1, kappa)
# heavy: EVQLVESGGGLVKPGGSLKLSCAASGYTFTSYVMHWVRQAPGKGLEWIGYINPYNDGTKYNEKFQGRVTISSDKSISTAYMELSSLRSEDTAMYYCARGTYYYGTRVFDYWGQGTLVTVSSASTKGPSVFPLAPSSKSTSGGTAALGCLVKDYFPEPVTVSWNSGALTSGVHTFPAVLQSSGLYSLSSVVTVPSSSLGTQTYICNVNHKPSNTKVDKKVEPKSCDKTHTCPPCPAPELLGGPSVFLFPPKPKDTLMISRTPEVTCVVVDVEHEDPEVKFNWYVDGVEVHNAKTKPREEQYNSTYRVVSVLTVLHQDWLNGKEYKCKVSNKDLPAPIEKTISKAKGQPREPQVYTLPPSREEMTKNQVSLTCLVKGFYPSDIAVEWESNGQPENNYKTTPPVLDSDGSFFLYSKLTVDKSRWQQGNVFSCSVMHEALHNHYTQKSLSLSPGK
# light: B1 light
# notes: HuAM4G7 IgG1 Fc variant
# B28: S267E/N325L (antibody, human IgG1, kappa)
# heavy: not shown
# light: B1 light
# notes: HuAM4G7 IgG1 Fc variant
# B29: L234P (antibody, human IgG1, kappa)
# heavy: not shown
# light: B1 light
# notes: HuAM4G7 IgG1 Fc variant
# B30: L235T/S267E (antibody, human IgG1, kappa)
# heavy: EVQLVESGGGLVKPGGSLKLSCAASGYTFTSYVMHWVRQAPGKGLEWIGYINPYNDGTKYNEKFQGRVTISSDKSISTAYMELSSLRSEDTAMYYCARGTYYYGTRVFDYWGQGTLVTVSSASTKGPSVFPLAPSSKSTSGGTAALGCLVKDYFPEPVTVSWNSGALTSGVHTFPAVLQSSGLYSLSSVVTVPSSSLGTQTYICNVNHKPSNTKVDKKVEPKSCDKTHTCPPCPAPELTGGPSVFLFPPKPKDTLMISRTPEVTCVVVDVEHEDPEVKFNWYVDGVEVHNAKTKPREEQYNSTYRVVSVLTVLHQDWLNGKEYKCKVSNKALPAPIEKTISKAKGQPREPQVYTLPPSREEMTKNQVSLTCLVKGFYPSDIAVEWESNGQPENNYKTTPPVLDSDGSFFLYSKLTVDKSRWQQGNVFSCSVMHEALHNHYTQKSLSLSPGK
# light: B1 light
# notes: HuAM4G7 IgG1 Fc variant
# Molecular target: T1, FcγRIIaR
# Experiment: SPR (Biacore)
row,Fold FcγRIIaR [fold],Binder
1,61.5,B1
2,5.69,B2
3,0.756,B3
4,0.134,B4
5,0.902,B5
6,253,B6
7,0.0859,B7
8,12.7,B8
9,0.853,B9
10,0.0342,B10
11,0.0511,B11
12,0.704,B12
13,0.728,B13
14,4.64,B14
15,0.693,B15
16,74,B16
17,1.02,B17
18,416,B18
19,1.45,B19
20,0.867,B20
21,98.5,B21
22,0.0554,B22
23,0.0372,B23
24,0.333,B24
25,1.79,B25
26,0.0859,B26
27,16.7,B27
28,41.5,B28
29,0.0141,B29
30,3.06,B30

# Molecular target: T3, human FcγRI receptor protein (R&D Systems) (human, UniProt P12314 16-288)
# T3 construct: also called CD64
# Experiment: SPR (Biacore)
# T3 sequence (P12314 16-288 limits assumed): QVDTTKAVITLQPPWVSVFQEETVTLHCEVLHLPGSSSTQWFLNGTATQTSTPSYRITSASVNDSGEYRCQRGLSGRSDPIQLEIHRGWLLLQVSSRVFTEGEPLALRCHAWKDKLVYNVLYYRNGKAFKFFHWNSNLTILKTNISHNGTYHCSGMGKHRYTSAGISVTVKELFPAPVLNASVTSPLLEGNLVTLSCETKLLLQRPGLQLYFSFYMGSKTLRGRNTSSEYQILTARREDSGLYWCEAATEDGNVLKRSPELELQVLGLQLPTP
row,Fold FcγRI [fold],Binder
1,0.101,B1
2,0.991,B6
3,0.0286,B8
4,1.45,B18
5,1.66,B27

# Molecular target: T4, human V158 FcγRIIIa receptor protein (6xHis and GST tags) (human, UniProt P08637 17-208, limits assumed)
# T4 construct: also called VIIIa
# Experiment: SPR (Biacore)
# T4 sequence (P08637 17-208 F176V limits assumed): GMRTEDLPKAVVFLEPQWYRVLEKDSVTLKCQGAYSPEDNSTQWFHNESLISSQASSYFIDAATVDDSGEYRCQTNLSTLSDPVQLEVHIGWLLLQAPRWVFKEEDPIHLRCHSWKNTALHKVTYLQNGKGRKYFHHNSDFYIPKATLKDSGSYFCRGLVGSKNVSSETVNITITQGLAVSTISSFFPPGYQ
binding result,Fold FcγRIIIaV [fold],Binder
no binding,–,B1
–,0.14,B8
–,0.216,B18

# Molecular target: T2, human FcγRIIb receptor protein (R&D …)
# Experiment: SPR (Biacore)
row,Fold FcγRIIb [fold],Binder
1,40.5,B1
2,11.4,B2
3,0.734,B3
4,0.456,B4
5,0.33,B5
6,344,B6
7,0.147,B7
8,21.7,B8
9,0.729,B9
10,0.147,B10
11,0.0237,B11
12,0.147,B12
13,5.11,B13
14,5.17,B14
15,0.192,B15
16,53.4,B16
17,5.58,B17
18,428,B18
19,0.797,B19
20,1.45,B20
21,42.3,B21
22,0.108,B22
23,0.147,B23
24,0.55,B24
25,1.17,B25
26,0.147,B26
27,21.2,B27
28,31.5,B28
29,0.0644,B29
30,2.37,B30
